{"source": "patent US20260109962", "proteins": {"B1": {"name": "Recombinant E40 (histidine-tagged endopeptidase 40 of Actinoallomurus A8, mature form, produced in S. lividans TK24/pIJ86/e40) (protein)", "chain": "AAPSGLSPANLQSAYKLPSSTAGSGQTVAIVDAYDAPTAEADLNVYRSQFGLGACTTANGCFKKVDQNGGTSYPRKDGGWAQEISLDLDMVSAVCPNCKIVLVEAKTNSFANLGTAENTAASLANVISNSYGGSDASDASYGSYYNHPGKAITVSSGDAGYGVEYPASSHYVTAVGGTSLRTASTSRGWSETAWSGAGSGCSAYNTALSGQSGLTGCSRRAVADVSAVADPATGVAVYDSTAYQGQSGWMVFGGTSVAAPIIGGVYGLAANAASIDNNYPYAHTSSLFDVTSGSNGTCTTTKWCTAGTGWDGPTGLGTPNGTGAFGHHHHHH"}}, "target": "T1, 33-mer peptide from alpha-gliadin", "T1 chain": "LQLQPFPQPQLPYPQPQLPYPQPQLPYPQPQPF"}
{"protein": "B1", "values": [{"measurement": "33-mer gliadin peptide degradation monitored by LC-MS/MS (1:48 enzyme vs substrate molar ratio, pH 5, 37 C): time to complete disappearance of the peptide", "result": "the native 33-mer peptide signal completely disappeared after only 15 minutes"}, {"measurement": "33-mer gliadin peptide degradation monitored by LC-MS/MS (1:96 molar ratio): time to complete degradation", "result": "in that case complete 33-mer degradation took 30 minutes (not shown)"}, {"measurement": "cleavage sites from MS/MS spectra of the digestion products", "result": "E40 cleaving site occurs between F-P and Q-L residues of gliadin, leading to short peptides lacking of T-cell stimulatory capacity"}]}
